Laboratory results published in publication PMC5606096, “High-level expression and characterization of a novel cutinase from Malbranchea cinnamomea suitable for butyl butyrate production” (Biotechnology for Biofuels, 2017).

How the values were obtained:
[1] = tested on: T1, CCCCCC(=O)Oc1ccc([N+](=O)[O-])cc1; test: p-nitrophenol release, Michaelis-Menten fit (GraFit); assay type: biochemical, Malbranchea cinnamomea; conditions: 50 mM Tris-HCl pH 8.0, 45 °C, 5 min
T1 construct: signal peptide (16 residues) removed, 215-residue precursor; pPIC9K secreted from Pichia pastoris GS115; purified on Q Sepharose; no tag mentioned

[2] = tested on: T2, CCCC(=O)Oc1ccc([N+](=O)[O-])cc1; test: as above; assay type: biochemical, Malbranchea cinnamomea; conditions: 50 mM Tris-HCl pH 8.0, 45 °C, 5 min
T2 construct: signal peptide (16 residues) removed, 215-residue precursor; pPIC9K secreted from Pichia pastoris GS115; purified on Q Sepharose; no tag mentioned

Chain of McCut (Malbranchea cinnamomea) (chain, as listed by the source): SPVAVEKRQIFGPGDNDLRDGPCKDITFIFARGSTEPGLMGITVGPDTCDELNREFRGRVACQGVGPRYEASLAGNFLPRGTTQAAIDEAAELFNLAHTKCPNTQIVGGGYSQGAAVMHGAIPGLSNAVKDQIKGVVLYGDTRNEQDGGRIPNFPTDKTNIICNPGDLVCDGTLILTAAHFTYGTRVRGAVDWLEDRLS

Work on McCut (Malbranchea cinnamomea) yielded a Km [1] of 0.27 mM, a kcat [1] of 0.46 s⁻¹ and a Km [2] of 0.66 mM. For the same substance, the kcat [2] was 0.46 s⁻¹.
